The text below walks through data of the nanobody polyreactivity screen of Harvey et al. (2022).

A short description of the data set: yeast display, Sf9 membrane polyspecificity reagent, FACS + sequencing; frameworks hold sequencing errors. The gist of the method:
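Galactose induction of a Saccharomyces cerevisiae BJ5465 synthetic nanobody display library ran 36–48 hours. The cells were then stained for 1 hour at 4 °C with 10% biotinylated, detergent-solubilized Sf9 membrane reagent, pulled down on streptavidin microbeads and FACS-sorted into low and high (top ~1%) gates on expression and reagent-binding fluorescence. Labels for polyreactivity follow the gate of origin.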
Consider “QVQLVESGGGLVQAGGSLRLSCAASGIIFYGYAMGWYRQAPGKERELVAGISSGGSTYYADSVKGRFTISRDNAKNTVYLQMNSLKPEDTAVYYCNADGGYSYESTDHYGYDYWGQGTQVTVSS”, for which the “polyreactivity (PSR sort gate)” value was “low polyreactivity”.

Turning to “QVQLGESGGGLVQAGGSLRLSCAASGRTFSYYAKGWNRPAPGKERELVGAISSTGGSTYYADSVKGRFTISRDNAKNTVYLQMNSLKPEDTAVYYCAARWYVLYYRGGYCGQGTQVTVSS”, the “polyreactivity (PSR sort gate)” value is given as “low polyreactivity”.

Consider “QVQLVESGGGLVQAGGSLRLSSAPSGSTFYGYSRGWYRPAPGKERELVAAISSRGGSTKYADSVKGRFTISRDNAKNTVYLQMNSLKPEDTAVYYCAATSRSSRRYYYWGQGTQVTVSS”, for which the “polyreactivity (PSR sort gate)” value is listed as “high polyreactivity”.

Take “QVQLVESGGGLVHAGGSLRLSCAASGRIFGPYAMGWYRQAPGKERELVAAISRSGSTTYYAVSVKGRFTISRDNAKNTVYLQMNSLKPDDTAVYYCNGRRYRVVQSKPCDYWGQGTQVTVSS”: the “polyreactivity (PSR sort gate)” value is “high polyreactivity”.

On to “QVQLVESGGGLVHAGGSLRLSCAPSGRTFPRYAMGWYRQAPGKERELVAAISVRAGITYYADSVKGRFTISRDNAKNTVYLQMNSLKPEDTAVYYCDKEHSSTSYDEGDYWGQGTQVTVSS”, for which the “polyreactivity (PSR sort gate)” value was “low polyreactivity”.

In the case of “QVQLVDSGGGLVQAGGSLRLSCAASGSIFPPYAMGWYRQAPGKERELVAAITRSGGSTYYADSVKGRFTISRDNAKNTVYLQMNSLKPEDTAVYYCAARYPGGYGYWGQGTQVTVSS”, the “polyreactivity (PSR sort gate)” value is “high polyreactivity”.

With “QVQLVESGGGLVQAGGSLRLSCAASGSIFQPNAMGGGGQAPGKERELVASIRGRGGDTYYADSVKGRFTISRDNAKNTVYLQMNSLKPEDTAVYYCAADYRWGQGTQVTVSS”, the “polyreactivity (PSR sort gate)” value is “low polyreactivity”.

Consider “QVQLVESGGGLVQAGGSLRLSCAASGRISTFYAMGWYRQAPGKERELVAGIRWRGGSTYYADSVKGRFTISRDNAKNTVYLQMNSLKAEDTAVYYCYSMDYWGQGTQVTVSS”, for which the “polyreactivity (PSR sort gate)” value is given as “high polyreactivity”.

On to “QVQLVESGGGLVQAGGSLRLSCAASGSTFYSNVMGWYTQATGKEREFVAGISGSGGSTYYADSVKGRFTISRDNAKNTVYLQMNSLKPDDTAVYYCAKYRYSRYFRYDYWGQGTQVTVSS”, for which the “polyreactivity (PSR sort gate)” value was “high polyreactivity”.

In the case of “QVQLVESGAGLVQAGVSLGLSCAASGFTFVRDAMGWYRQAPGKEREFVASISARGGNTFYADSVQGRFSISRDNAKNTVYLKMNSLKPEDTAVYYCAKRGPYGTGYGYWGQGTQVTVSS”, the “polyreactivity (PSR sort gate)” value is “high polyreactivity”.

Take “QVQLQESGGGLVQAGGSLRPSCAASGSISDGVPMGWYRQAPGEERELVATTVLGATTNYADSVKGRFTISRGNAKNTVYLQMNSLKPEETEVYYCAAPLRYDKGFSYWGQGTQVTVSS”: the “polyreactivity (PSR sort gate)” value is “low polyreactivity”.

Turning to “QVQLVEAGGGLVQAGGSLRLSCAASGFILENYAMGWNRQAPGKERELVAAISGSGGTTYYADSVKGRFTISRDNAKNTVYLQMNSLKPEDTAVYYCNRDRLLRQYDYWGQGTQVTVSS”, the “polyreactivity (PSR sort gate)” value is reported as “high polyreactivity”.

Turning to “QVQLVESGGGLVQAGGILRLSCAASGRIFGPYTMGWYRQAPGKEREFVAAISRSGDSTYYADSVKGRFTISRDNAKNTVYLQMNSLKPEDTAVYYCAAKYGTRLSAYYYWGQGTQVTVSS”, the “polyreactivity (PSR sort gate)” value was “high polyreactivity”.

“QVQLVESGGGLVQAGGSLRLSCAASGRTFRAYAMGWYRQAPGKERELVAAISYDGTRTYYADSVKGRFTISRDNAKNTVYLQMNSLKPEDTAVYYCNAVWVRGFYRVYDYWGQGTQVTVSS”: the “polyreactivity (PSR sort gate)” value is on record as “high polyreactivity”.

Regarding “QVQLQESGGGLVQAGGSLRLSCAASGTISDSGLMGWYRQAPGKERELVAGISSGGITNYADSVKGRFTISRDNAKNTVYMQMNSLKPEDTAVYWGQGSQVTVSS”, the “polyreactivity (PSR sort gate)” value was “low polyreactivity”.

“QVQLVESGVGLVQAGGSLRLSCAASGRTFVNNAMGWYRQAPGKERELVAAISQSGSRTYYADSVKRRFTISRDNAKNTVYLQMNSLKPEDTAVYYCAARGARYSTSDYWGQGTQVTVSS”: the “polyreactivity (PSR sort gate)” value is listed as “high polyreactivity”.

For the sequence “QVQLVESGGGLVQAGGSLRLSCAASGIIFYWYAMGWYRQAPGKERELVAAISASGASTYYADSVKGRFTISRDNAKNTVYLQMNSLKPEDTAVYYCAAEHPWSRYDYWGQGTQVTVSS”, the “polyreactivity (PSR sort gate)” value is on record as “high polyreactivity”.

With “QVQLVESGGALVQAGGRLLLSCAASGRTFQGYVMGWYRQAPGKERELVAAISRGTSTYYADSVKGRFTISRDNAKNTVYLQMNSLKPEDTAGYYCAADGERRHYWGQGTQVTVSS”, the “polyreactivity (PSR sort gate)” value is “low polyreactivity”.

For “QVQLVESGGGLVQAGGSLRLSCAASGSICVQYAMGRSRQAPGKERELVAAISNSGGSTYYADSVKGRFTISRDTAKNTVYLQMNSLKPEDTAVYYCAARYHTRGAGRPYYYWGQGTQVTVSS”, the “polyreactivity (PSR sort gate)” value was “high polyreactivity”.

“QVQLVESGGGLVQAGGSLRLSCAASGGTFDVYTMGWYRQAPGKERELVAAIDNGGSTNYADSVKGRFTISRDNAKNTVYLQMNSLKPEDTAVYYCAADEVYLFWGIAEFIYDYWGQGTQVTVSS”: the “polyreactivity (PSR sort gate)” value was “low polyreactivity”.

“QVQLVESGGGLVQAGGSLRLSCAASGFTFGRYAMGWYRQAPGKEREFVAAITWSGGGTYYADSVKGRFTISRDNAKYTVYLQMYSLKPEDTAVYYCAADRRAYGGGYWGQGTQVTVSS”: the “polyreactivity (PSR sort gate)” value is listed as “high polyreactivity”.

For the sequence “QVQLVESGGGLVQAGGSLRLSCAGSGSTFDGNAMGWYRQAPGKDRELVAAITSGGSTNYADSVKGRFTISRDNAKNTVYLQMNSLKPEDTAVYYCAADTVSFSILYDYWGQGTQVTVSS”, the “polyreactivity (PSR sort gate)” value was “low polyreactivity”.

For the sequence “QVQLVESGGGLVQAGGSLRLSCAASGFTFANNAMGWYRQAPGKERELVAAITRGDSTYYAESVKGRFTISRDNAKNTVYLQMNSRKPEDTAVYYCAKEWYFPIYDYWGQGTQVTVSS”, the “polyreactivity (PSR sort gate)” value is “low polyreactivity”.

On to “QVQLVESGGGLVQAGGSLRLSCAASGSTFGKNAMGWYRQAPGKERELVASITWRGGSTYYADSVKGRFTISRDNAKNTVYLQMNSLKPEDTAVYYCATKWHIHIGSYKYYYWGHGTQVTVSS”, for which the “polyreactivity (PSR sort gate)” value is on record as “low polyreactivity”.

For the sequence “QVQLVESGGGLVQAGGSLRLSCAASGSTFYRYAMGWYRQAPGKERELVAAITARGGSTYYADSVKGRFTISRDNAKNTVYLQMNSLKPEDTAVYYCAADWLSTKNDYWGQGTQVTESS”, the “polyreactivity (PSR sort gate)” value is “low polyreactivity”.

As to “QVQLVESGGGLVQAGGSLRLSSAASGRTFGFNPMGWYRQAPGKERELVAAISSSSSSTYYADSVKGRFTISRDNAKNTVYLQINSLKPEDTAVYYCAKQEPYPFGGYYEYDYWGQGTQVTVSS”, the “polyreactivity (PSR sort gate)” value is given as “low polyreactivity”.

Turning to “QGQLVESGGGLVQAGGSLRLSCAASGRTFWYYTIGWYRQAPGKERELVAAISSGGRTNYADSVKGRFTISRDNAKNPVYLQMNSLKPEDTAVYYCASSRYYKYVERDYWGQGTQVTVSS”, the “polyreactivity (PSR sort gate)” value is “high polyreactivity”.

Turning to “QVQLVETGGGLVQAGGSLRLSCAASGITFASYAMGWYRHAPGKEREFVATITTGGTNTYYADSVKGRFTLSRDNAKKTVYLQMNSQKPEDTAVYYCAADSTPYVLSGNYDYWGQGTQVTVSS”, the “polyreactivity (PSR sort gate)” value is listed as “low polyreactivity”.

For “QVQLVESGGGLVQAGGSLRLSCAASGSIFYSYAMGWSRQAPGKERELFAAISYSTTSTYYADSVKGRFTISCDNAKNTVYLQMKSLKPEDTAVYYCAVDYIIWYDGYLLYYWGQGTQVTVSS”, the “polyreactivity (PSR sort gate)” value is given as “low polyreactivity”.

Consider “QVQHVESGGGLVQAGGSLRLSCAASGFTFATYAMGWYRQAQGKERELVAAISRGTSTYYADSVKGRFTISRVNAKNTVYLQMNSLIPDDTAVYYCAATSSFRYDYWGKGTQVTVSS”, for which the “polyreactivity (PSR sort gate)” value is given as “low polyreactivity”.

Regarding “QFQLVESGGVLDQAGCSLRLSCAASGYTFYANAMGWYRQAPGKEREFVASIPWSGGSTYYADSVKGRFTISRDNAKNTVYLQMNSLKPEDTAVYYCAAESWFKYDYWGQGTQVTVSS”, the “polyreactivity (PSR sort gate)” value was “low polyreactivity”.

Turning to “QVQLVESGGGLVQAGGSLRLSCAASGRTFSSYAMGWYRQAPGKERELVAAINWSGASTYYADSVKGRFTISRDNAKNTVYLQMNSLKPEDTAVYYCAKSLYVGKYWQIRSSVDYWGQGTQVTVSS”, the “polyreactivity (PSR sort gate)” value is “low polyreactivity”.

On to “QVQLVESGGGLVQAGGSLRLSCAASGRTFVYYDMGWYRQAPGKERELVASISSGDSTNYADSVKGRFTISRDNAKNTVYLQMNSLKPEDTAVYDCAARGYLRGEQLYVFIRYDYWGQGTQVTVSS”, for which the “polyreactivity (PSR sort gate)” value was “low polyreactivity”.

For “QVQLVESGGGLVQAGGSLRLSCSAYGLILRTYGMGWYRQAPGKERELVAVISSGGSTYYADSVKGRFTISRDNEKNTVYLQMNSLKPEDTAVYYCAVRSSWYEGDYWGQGTQVTVSS”, the “polyreactivity (PSR sort gate)” value is “low polyreactivity”.

Turning to “QVHLVESGGGLVQAGGSLRLSCAASGRIFKTYAMRWYRQAPGKERELVAAITASGGRTYDADSVKGRFTISRDNAKNTVYLQMNSLTPEDSAVYYCAAPLLRDLRSPYYYNYWGQGTQVTVSS”, the “polyreactivity (PSR sort gate)” value was “low polyreactivity”.

On to “QVQLVESGGGFVQAGGSLRLSCAASGFSFGYSAMGWYRQAPGKERELVAAINNADSTYYADSVKGRFPISRDNAKNTVYLQMNSLKPEDTAVYYCAAVVDYGWWLAYDYWGQGTQVTVSS”, for which the “polyreactivity (PSR sort gate)” value was “high polyreactivity”.

Consider “QVQLVESAGGLVQAGGSLRLSCAASGYTFYRNAMGCYRQAPGKERELVAAISWRGGSTYYADSVKGRFTISRDNAKNTVYLQMNSLKPEDTAVYYCAAYFSYGGSTTGEEYWGQGTQVTVSS”, for which the “polyreactivity (PSR sort gate)” value is listed as “high polyreactivity”.

For the sequence “QVQLVESGGGLVQAGGSLRLSCAASGFTFYIYAMGWYRQAPGKERELVARISSGGRTYYADSVKGRFTISRDNAKNTVYLQMNRLKPEDTAVYDCHFWYGSWGQGTQVTVSS”, the “polyreactivity (PSR sort gate)” value is listed as “low polyreactivity”.

On to “QVQLVETGGGLVQAGGSLLLSCAASGNTFQYYAMGCYRQAPGKERELVAAITTGGSTNYADSVKGRFTISRDNAKNTVYLQMNSLKPEDTAVYYCAARGCVSKRISDYWGQGTQVTVSS”, for which the “polyreactivity (PSR sort gate)” value was “low polyreactivity”.

As for “QVQLVESGGGLVQAGGSLRLSCAASGSTFRFNTMGWYRQAPGKERELVAAISYSGGSTYYADSVKGRFTISRDNAKNTVYLQMNSLKPEDTAVYYCAVQAWYLTYSYPYSKGYYWGQGTQVTVSS”, the “polyreactivity (PSR sort gate)” value was “high polyreactivity”.

As to “QVQLVESGGGLVQAGGSLRLSCAASGSIFYFHALGWYRQAPGKERELVAAITRRGGSTRYADSVKGRFTISRDNAKNTVYLQMNSLKPEDTAVYYCAAVKEYSYSYKSYDVYYWGQGTQVTVSS”, the “polyreactivity (PSR sort gate)” value is listed as “high polyreactivity”.
